This is an account of results in the supplement of paper PMC5998384.

The subject of series [1] is HeLa Kyoto. Kind of series: melting temperature (median over replicates), in situ; higher = more thermally stable.
Series [2] has as its system HeLa Kyoto. Put plainly: solubility in G1/S (NP-40 vs SDS abundance) (log2 ratio); higher = more soluble. The note with it: cell cycle stage: G1/S.
Series [3] has as its system HeLa Kyoto. Kind of series: thermal stability score vs G1/S (z-score of summed log2 fold changes over temperatures); higher = more thermally stable than in G1/S.
Series [4] relates to HeLa Kyoto. Put plainly: solubility change mitosis vs G1/S (difference of NP-40 vs SDS log2 ratios) (log2 ratio difference); higher = more soluble in mitosis.
[5] abbreviates: cell cycle stage: early G1 (4.5 h after nocodazole release).
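Throughout, for melting temperature (median over replicates), in situ: HeLa Kyoto cells synchronized by double thymidine or nocodazole block, proteins quantified by TMT10plex mass spectrometry, three independent biological replicates.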
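Throughout, for solubility change mitosis vs G1/S (difference of NP-40 vs SDS log2 ratios): synchronized HeLa Kyoto cells (double thymidine block for G1/S, nocodazole release for mitosis), protein amounts in NP-40 versus SDS lysates quantified by mass spectrometry, three biological replicates.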
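Throughout, for solubility in G1/S (NP-40 vs SDS abundance): HeLa Kyoto cells arrested at G1/S by double thymidine block, proteins quantified by TMT10plex mass spectrometry in mild NP-40 versus SDS extracts, three biological replicates.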
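Throughout, for thermal stability score vs G1/S (z-score of summed log2 fold changes over temperatures): synchronized HeLa Kyoto cells, proteins quantified by TMT10plex mass spectrometry, three biological replicates, mitosis taken 0.5 h after nocodazole release, G1/S directly after double thymidine block.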

With “MAEAEGESLESWLNKATNPSNRQEDWEYIIGFCDQINKELEGPQIAVRLLAHKIQSPQEWEALQALTVLEACMKNCGRRFHNEVGKFRFLNELIKVVSPKYLGDRVSEKVKTKVIELLYSWTMALPEEAKIKDAYHMLKRQGIVQSDPPIPVDRTLIPSPPPRPKNPVFDDEEKSKLLAKLLKSKNPDDLQEANKLIKSMVKEDEARIQKVTKRLHTLEEVNNNVRLLSEMLLHYSQEDSSDGDRELMKELFDQCENKRRTLFKLASETEDNDNSLGDILQASDNLSRVINSYKTIIEGQVINGEVATLTLPDSEGNSQCSNQGTLIDLAELDTTNSLSSVLAPAPTPPSSGIPILPPPPQASGPPRSRSSSQAEATLGPSSTSNALSWLDEELLCLGLADPAPNVPPKESAGNSQWHLLQREQSDLDFFSPRPGTAACGASDAPLLQPSAPSSSSSQAPLPPPFPAPVVPASVPAPSAGSSLFSTGVAPALAPKVEPAVPGHHGLALGNSALHHLDALDQLLEEAKVTSGLVKPTTSPLIPTTTPARPLLPFSTGPGSPLFQPLSFQSQGSPPKGPELSLASIHVPLESIKPSSALPVTAYDKNGFRILFHFAKECPPGRPDVLVVVVSMLNTAPLPVKSIVLQAAVPKSMKVKLQPPSGTELSPFSPIQPPAAITQVMLLANPLKEKVRLRYKLTFALGEQLSTEVGEVDQFPPVEQWGNL [GGA3]”, the melting temperature in series [1] (cell cycle stage: G1/S) worked out at 50.1 °C; in series [1] (cell cycle stage: mitosis), 50.7 °C. Also, the “solubility in G1/S (log2)” value in series [2] came to 0.445. The thermal stability score in series [3] (setting [5]) is 1.01; in series [3] (cell cycle stage: mitosis), 0.468. In series [4], the “solubility change mitosis (log2)” value was -0.218.

On to “MAEAGDAALSVAEWLRALHLEQYTGLFEQHGLVWATECQGLSDTRLMDMGMLLPGHRRRILAGLLRAHTSPAPAPRPTPRPVPMKRHIFRSPPVPATPPEPLPTTTEDEGLPAAPPIPPRRSCLPPTCFTTPSTAAPDPVLPPLPAKRHLAELSVPPVPPRTGPPRLLVSLPTKEEESLLPSLSSPPQPQSEEPLSTLPQGPPQPPSPPPCPPEIPPKPVRLFPEFDDSDYDEVPEEGPGAPARVMTKKEEPPPSRVPRAVRVASLLSEGEELSGDDQGDEEEDDHAYEGVPNGGWHTSSLSLSLPSTIAAPHPMDGPPGGSTPVTPVIKAGWLDKNPPQGSYIYQKRWVRLDTDHLRYFDSNKDAYSKRFISVACISHVAAIGDQKFEVITNNRTFAFRAESDVERKEWMQALQQAMAEQRARARLSSAYLLGVPGSEQPDRAGSLELRGFKNKLYVAVVGDKVQLYKNLEEYHLGIGITFIDMSVGNVKEVDRRSFDLTTPYRIFSFSADSELEKEQWLEAMQGAIAEALSTSEVAERIWAAAPNRFCADCGAPQPDWASINLCVVICKRCAGEHRGLGAGVSKVRSLKMDRKVWTETLIELFLQLGNGAGNRFWAANVPPSEALQPSSSPSTRRCHLEAKYREGKYRRYHPLFGNQEELDKALCAAVTTTDLAETQALLGCGAGINCFSGDPEAPTPLALAEQAGQTLQMEFLRNNRTTEVPRLDSMKPLEKHYSVVLPTVSHSGFLYKTASAGKLLQDRRAREEFSRRWCVLGDGVLSYFENERAVTPNGEIRASEIVCLAVPPPDTHGFEHTFEVYTEGERLYLFGLESAEQAHEWVKCIAKAFVPPLAEDLLARDFERLGRLPYKAGLSLQRAQEGWFSLSGSELRAVFPEGPCEEPLQLRKLQELSIQGDSENQVLVLVERRRTLYIQGERRLDFMGWLGAIQKAAASMGDTLSEQQLGDSDIPVIVYRCVDYITQCGLTSEGIYRKCGQTSKTQRLLESLRQDARSVHLKEGEQHVDDVSSALKRFLRDLPDGLFTRAQRLTWLEASEIEDEEEKVSRYRELLVRLPPVNRATVKALISHLYCVQCFSDTNQMNVHNLAIVFGPTLFQTDGQDYKAGRVVEDLINHYVVVFSVDEEELRKQREEITAIVKMRVAGTASGTQHAGDFICTVYLEEKKAETEQHIKVPASMTAEELTLEILDRRNVGIREKDYWTCFEVNEREEAERPLHFAEKVLPILHGLGTDSHLVVKKHQAMEAMLLYLASRVGDTKHGMMKFREDRSLLGLGLPSGGFHDRYFILNSSCLRLYKEVRSQRPWSGAPETSHRPEKEWPIKSLKVYLGVKKKLRPPTCWGFTVVHETEKHEKQQWYLCCDTQMELREWFATFLFVQHDGLVWPSEPSRVSRAVPEVRLGSVSLIPLRGSENEMRRSVAAFTADPLSLLRNV [ARAP1]”, for which the melting temperature came out at 48.7 °C in series [1] (cell cycle stage: G1/S) and 49.1 °C in series [1] (cell cycle stage: mitosis). Besides, in series [2], the “solubility in G1/S (log2)” value was -0.0593. Besides, the thermal stability score in series [3] (setting [5]) turned out to be 0.748; in series [3] (cell cycle stage: mitosis), 0.922. Besides, in series [4], the “solubility change mitosis (log2)” value is -0.0622.

As for “MAEAVFHAPKRKRRVYETYESPLPIPFGQDHGPLKEFKIFRAEMINNNVIVRNAEDIEQLYGKGYFGKGILSRSRPSFTISDPKLVAKWKDMKTNMPIITSKRYQHSVEWAAELMRRQGQDESTVRRILKDYTKPLEHPPVKRNEEAQVHDKLNSGMVSNMEGTAGGERPSVVNGDSGKSGGVGDPREPLGCLQEGSGCHPTTESFEKSVREDASPLPHVCCCKQDALILQRGLHHEDGSQHIGLLHPGDRGPDHEYVLVEEAECAMSEREAAPNEELVQRNRLICRRNPYRIFEYLQLSLEEAFFLVYALGCLSIYYEKEPLTIVKLWKAFTVVQPTFRTTYMAYHYFRSKGWVPKVGLKYGTDLLLYRKGPPFYHASYSVIIELVDDHFEGSLRRPLSWKSLAALSRVSVNVSKELMLCYLIKPSTMTDKEMESPECMKRIKVQEVILSRWVSSRERSDQDDL [TSEN2]”, the melting temperature in series [1] (cell cycle stage: G1/S) amounted to 49.7 °C; in series [1] (cell cycle stage: mitosis), 49.9 °C. Besides, in series [2], the “solubility in G1/S (log2)” value is 0.0298. Moreover, the thermal stability score in series [3] (setting [5]) was determined as 0.825; in series [3] (cell cycle stage: mitosis), 0.75. Also, the “solubility change mitosis (log2)” value in series [4] was -0.177.
